What all share (experiment): ITC; 25 °C, MicroCal PEAQ-ITC; 50 μM protein in the cell titrated with 17 injections of 750 μM peptide; in the absence of NAD+; 'one set of binding sites' model
On the technique in general: Isothermal titration calorimetry measures the heat released or taken up as one component is titrated into another.

Experiment [1] concerns the target SIRT6 (human SIRT6 residues 1-355) (human) (UniProt Q8N6T7).
Experiment [2] deals with SIRT5Δ (human SIRT5 residues 34-302) (human) (UniProt Q9NXA8).
The target of experiment [3] is SIRT1Δ (human SIRT1 NAD+-dependent deacetylase domain 234-510 with C-terminal regulatory region 641-665) (human) (UniProt Q96EB6).
Experiment [4] deals with CobBΔ (E. coli CobB residues 38-279) (E. coli) (UniProt P75960).
Experiment [5] addresses SIRT2Δ (human SIRT2 residues 34-356) (human) (UniProt Q8IXJ6).

pKd: −log10 of the molar value.

Sequence of SIRT6 (human SIRT6 residues 1-355) (human) (Q8N6T7 whole entry, the tested form may be a part): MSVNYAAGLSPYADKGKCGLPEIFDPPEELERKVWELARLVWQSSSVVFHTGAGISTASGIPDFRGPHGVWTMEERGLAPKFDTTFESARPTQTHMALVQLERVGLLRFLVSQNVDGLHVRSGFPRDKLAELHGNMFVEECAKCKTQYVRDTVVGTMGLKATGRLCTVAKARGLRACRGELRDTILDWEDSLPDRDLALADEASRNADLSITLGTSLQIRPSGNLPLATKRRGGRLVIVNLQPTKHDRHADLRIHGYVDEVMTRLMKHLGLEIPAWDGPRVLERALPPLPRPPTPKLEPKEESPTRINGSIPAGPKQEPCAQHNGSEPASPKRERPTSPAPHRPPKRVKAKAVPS
Sequence of SIRT2Δ (human SIRT2 residues 34-356) (human) (Q8IXJ6 34-356, stated change not applied): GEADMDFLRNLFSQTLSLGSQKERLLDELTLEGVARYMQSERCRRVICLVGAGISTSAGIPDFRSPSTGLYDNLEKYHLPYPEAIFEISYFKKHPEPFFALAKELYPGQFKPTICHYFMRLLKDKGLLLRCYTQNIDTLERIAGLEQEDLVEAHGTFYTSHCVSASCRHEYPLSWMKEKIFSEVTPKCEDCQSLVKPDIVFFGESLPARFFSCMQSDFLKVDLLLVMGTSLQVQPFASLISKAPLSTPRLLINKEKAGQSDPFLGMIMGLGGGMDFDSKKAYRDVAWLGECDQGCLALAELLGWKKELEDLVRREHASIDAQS
Sequence of SIRT5Δ (human SIRT5 residues 34-302) (human) (Q9NXA8 34-302, stated change not applied): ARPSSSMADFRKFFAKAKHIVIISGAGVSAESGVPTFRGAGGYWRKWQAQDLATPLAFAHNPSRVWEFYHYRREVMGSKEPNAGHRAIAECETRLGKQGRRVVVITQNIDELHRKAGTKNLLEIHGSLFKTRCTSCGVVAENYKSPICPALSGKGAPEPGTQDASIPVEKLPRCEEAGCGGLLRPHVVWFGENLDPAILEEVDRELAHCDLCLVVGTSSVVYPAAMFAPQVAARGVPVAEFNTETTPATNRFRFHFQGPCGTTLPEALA

As a reminder, the pKd is the negative decadic logarithm of the Kd, by convention in mol/L. A higher pKd goes with a low Kd. As for “histone H3(1-15)K9ac peptide (from UniProt P68431 2-16)”, the pKd was 3.99 in experiment [1] and 3.82 in experiment [2].
Regarding “histone H3(1-15)K9cr peptide (from UniProt P68431 2-16)”, in experiment [3], the pKd is 4.34.
For the substance “histone H3(1-15)K9pr peptide (from UniProt P68431 2-16)”, the pKd in experiment [4] was 6.10; in experiment [5], 3.98.
The corresponding values for “histone H3(1-15)K9myr peptide (from UniProt P68431 2-16)” are 7.30 and 6.10.
Take “histone H3(1-15)K9oct peptide (from UniProt P68431 2-16)”: the figures for the pKd in experiment [4] and in experiment [1] were 6.70 and 6.15, respectively.
For the substance “histone H3(1-15)K9dod peptide (from UniProt P68431 2-16)”, the pKd was 5.31 in experiment [3], 7.22 in experiment [4] and 5.16 in experiment [5].
On to “histone H3(1-15)K9dec peptide (from UniProt P68431 2-16)”, for which the negative logarithm of the Kd (pKd) was 5.15 in experiment [3], 6.70 in experiment [4] and 4.26 in experiment [1].
In experiment [4], “histone H3(1-15)K9hex peptide (from UniProt P68431 2-16)” showed a pKd of 6.52.
Still for that read-out and setting: then “histone H3(1-15)K9bu peptide (from UniProt P68431 2-16)”, with 6.70.

The record behind these values is PMC6796883.
